Experimental data published in patent US20160264649A1.

Legend:
Assay in all cases: cell-based or functional assay
[1] = molecular target: HIV-1 MGRM-AE-005 Env (HIV-1)
[2] = molecular target: HIV-1 MGRM-F1-017 Env (HIV-1)
[3] = molecular target: HIV-1 MGRM-AE-002 Env (HIV-1)
[4] = molecular target: HIV-1 MGRM-F1-018 Env (HIV-1)
[5] = molecular target: HIV-1 MGRM-C-006 Env on pseudovirus (HIV-1)
[6] = molecular target: HIV-1 LAVI_C22 Env on pseudovirus (HIV-1)
HIV-1 JRCSF Env (HIV-1) = HIV-1 JRCSF Env (HIV-1) (UniProt P20871)
[7] = molecular target: HIV-1 CAAN.A2 (Acute) Env on pseudovirus (HIV-1)
[8] = molecular target: HIV-1 92UG001 Env (HIV-1)
[9] = molecular target: HIV-1 MGRM-Chronic-B-023 Env on pseudovirus (HIV-1)
[10] = molecular target: HIV-1 92UG024 Env (HIV-1)
[11] = molecular target: HIV-1 MGRM-D-008 Env (HIV-1)
[12] = molecular target: HIV-1 APV_13 Env on pseudovirus (HIV-1)
[13] = molecular target: aMLV envelope (negative control pseudovirus)
[14] = molecular target: HIV-1 MGRM-C-015 Env on pseudovirus (HIV-1)
[15] = molecular target: HIV-1 MGRM-F1-023 Env (HIV-1)
[16] = molecular target: HIV-1 MGRM-D-028 Env (HIV-1)
HIV-1 APV-13 Env (HIV-1) = molecular target: HIV-1 APV-13 Env (HIV-1)
[17] = molecular target: HIV-1 MGRM-D-019 Env (HIV-1)
[18] = molecular target: HIV-1 MGRM-C-009 Env on pseudovirus (HIV-1)
[19] = molecular target: HIV-1 93IN905 Env (HIV-1)
[20] = molecular target: HIV-1 MGRM-G-001 Env (HIV-1)
[21] = molecular target: HIV-1 MGRM-D-002 Env (HIV-1)
[22] = molecular target: HIV-1 MGRM-D-012 Env (HIV-1)
[23] = molecular target: HIV-1 MGRM-Chronic-B-017 Env on pseudovirus (HIV-1)
[24] = molecular target: HIV-1 MGRM-AE-006 Env (HIV-1)
[25] = molecular target: HIV-1 MGRM-C-010 Env on pseudovirus (HIV-1)
[26] = molecular target: HIV-1 92BR020 Env (HIV-1)
[27] = molecular target: HIV-1 MGRM-C-007 Env on pseudovirus (HIV-1)
[28] = molecular target: HIV-1 94UG114 Env (HIV-1)
[29] = molecular target: HIV-1 APV_6 Env on pseudovirus (HIV-1)
[30] = molecular target: HIV-1 MGRM-AE-003 Env (HIV-1)
[31] = molecular target: HIV-1 MGRM-G-006 Env (HIV-1)
[32] = molecular target: HIV-1 MGRM-G-027 Env (HIV-1)
HIV-1 APV-6 Env (HIV-1) = molecular target: HIV-1 APV-6 Env (HIV-1)
HIV-1 APV-17 Env (HIV-1) = molecular target: HIV-1 APV-17 Env (HIV-1)
[33] = molecular target: HIV-1 MGRM-Chronic-B-011 Env on pseudovirus (HIV-1)
[34] = molecular target: HIV-1 97ZA012 Env on pseudovirus (HIV-1)
[35] = molecular target: HIV-1 MGRM-C-019 Env on pseudovirus (HIV-1)
[36] = molecular target: HIV-1 MGRM-G-028 Env (HIV-1)
[37] = molecular target: HIV-1 MGRM-G-017 Env (HIV-1)
[38] = molecular target: HIV-1 MGRM-G-015 Env (HIV-1)
[39] = molecular target: HIV-1 92UG046 Env (HIV-1)
[40] = molecular target: HIV-1 MGRM-Chronic-B-018 Env on pseudovirus (HIV-1)
[41] = molecular target: HIV-1 MGRM-C-008 Env on pseudovirus (HIV-1)
[42] = molecular target: HIV-1 MGRM-G-013 Env (HIV-1)
[43] = molecular target: HIV-1 MGRM-Chronic-B-004 Env on pseudovirus (HIV-1)
[44] = molecular target: HIV-1 MGRM-A-004 Env (HIV-1)
[45] = molecular target: HIV-1 MGRM-A-001 Env (HIV-1)
[46] = molecular target: HIV-1 93UG077 Env (HIV-1)
[47] = molecular target: HIV-1 92RW009 Env (HIV-1)
[48] = molecular target: HIV-1 MGRM-A-008 Env (HIV-1)

## 1495_C14 (PGC14) (antibody)
[1]
  IC50 (µg/ml), pseudovirus neutralization: > 50 µg/mL
[2]
  IC50 (pseudovirus neutralization): > 50 µg/mL
[3]
  IC50 (µg/ml), pseudovirus neutralization: > 50 µg/mL
[4]
  IC50 (pseudovirus neutralization): > 50 µg/mL
[5]
  IC50: > 50 µg/mL
[6]
  IC50: 25 µg/mL
HIV-1 JRCSF Env (HIV-1)
  neutralization IC50: > 50 µg/mL
[7]
  IC50: > 50 µg/mL
[8]
  IC50 (µg/ml), pseudovirus neutralization: > 50 µg/mL
[9]
  IC50: > 50 µg/mL
[10]
  IC50 (µg/ml), pseudovirus neutralization: > 50 µg/mL
  neutralization IC50: > 50 µg/mL
[11]
  IC50 (µg/ml), pseudovirus neutralization: > 50 µg/mL
[12]
  IC50: > 50 µg/mL
[13]
  IC50 (pseudovirus neutralization): > 50 µg/mL
[14]
  IC50: > 50 µg/mL
[15]
  IC50 (pseudovirus neutralization): > 50 µg/mL
[16]
  IC50 (µg/ml), pseudovirus neutralization: > 50 µg/mL
HIV-1 APV-13 Env (HIV-1)
  neutralization IC50: > 50 µg/mL
[17]
  IC50 (µg/ml), pseudovirus neutralization: > 50 µg/mL
[18]
  IC50: > 50 µg/mL
[19]
  neutralization IC50: > 50 µg/mL
[20]
  IC50 (µg/ml), pseudovirus neutralization: > 50 µg/mL
[21]
  IC50 (µg/ml), pseudovirus neutralization: 29 µg/mL
[22]
  IC50 (µg/ml), pseudovirus neutralization: > 50 µg/mL
[23]
  IC50: > 50 µg/mL
[24]
  IC50 (µg/ml), pseudovirus neutralization: > 50 µg/mL
[25]
  IC50: > 50 µg/mL
[26]
  neutralization IC50: 0.637 µg/mL
[27]
  IC50: > 50 µg/mL
[28]
  IC50 (µg/ml), pseudovirus neutralization: > 50 µg/mL
[29]
  IC50: 23 µg/mL
[30]
  IC50 (µg/ml), pseudovirus neutralization: > 50 µg/mL
[31]
  IC50 (µg/ml), pseudovirus neutralization: > 50 µg/mL
[32]
  IC50 (µg/ml), pseudovirus neutralization: > 50 µg/mL
HIV-1 APV-6 Env (HIV-1)
  neutralization IC50: 7.41 µg/mL
HIV-1 APV-17 Env (HIV-1)
  neutralization IC50: > 50 µg/mL
[33]
  IC50: > 50 µg/mL
[34]
  IC50: > 50 µg/mL
[35]
  IC50: 12 µg/mL
[36]
  IC50 (µg/ml), pseudovirus neutralization: > 50 µg/mL
[37]
  IC50 (µg/ml), pseudovirus neutralization: > 50 µg/mL
[38]
  IC50 (µg/ml), pseudovirus neutralization: > 50 µg/mL
[39]
  IC50 (µg/ml), pseudovirus neutralization: > 50 µg/mL
[40]
  IC50: > 50 µg/mL
[41]
  IC50: > 50 µg/mL
[42]
  IC50 (µg/ml), pseudovirus neutralization: > 50 µg/mL
[43]
  IC50: > 50 µg/mL
[44]
  neutralization IC50: > 50 µg/mL
[45]
  neutralization IC50: > 50 µg/mL
[46]
  neutralization IC50: > 50 µg/mL
[47]
  neutralization IC50: > 50 µg/mL
[48]
  neutralization IC50: > 50 µg/mL
